Source: the RNAGym collection of RNA variant scans (doi:10.1093/molbev/msab373)

B1: Azoarcus group I ribozyme (parent)
chain: GUGCCUUGCGCCGGGAAACCACGCAAGGGAUGGUGUCAAAUUCGGCGAAACCUAAGCGCCCGCCCGGGCGUAUGGCAACGCCGAGCCAAGCUUCGGCGCCUGCGCCGAUGAAGGUGUAGAGACUAGACGGCACCCACCUAAGGCAAACGCUAUGGUGAAGGCAUAGUCCAGGGAGUGGCGAAAGUCACACAAACCGG

Variants of: B1
Assay: reverse-splicing fitness (ratio to wild type); higher = more active; in vitro selection; Mg2+ level not given
Method in brief: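 An in vitro group I ribozyme library with randomized positions was T7-transcribed and gel-purified. In triplicate, 10 pmol RNA in EPPS pH 7.5 was reacted with 50 pmoles of a 30-nt RNA substrate for 1 h at 37 °C across several added MgCl2 levels (1–48 mM), then stopped with EDTA. Products were reverse transcribed from a substrate-complementary primer, PCR-amplified and sequenced (HiSeq 4000). Fitness is a variant's read proportion after selection over that before, normalised to wild type.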

Row | Variant | reverse-splicing fitness
1 | GUGCCUUGCGCCGGGAAACCACGCAAGGGAUGGUGUCAAAUUCGGCGAAACCUAAGCGCCCGCCCGGGCGUAUGGCAACGCUGAGCCAAGCUUCGGCGCCUGCGCCGAUGGAGGUGUAGAGACUAGACGGCACCCACCUAAGGCAAACGUUAUGGUGAAGGCAUAGUCCAGGGAGCGGCGAAAGUCACACAAACCGG [C82U A111G C150U U176C] | 0.146
2 | GUGCCUUGCGCCGGGAAACCACGCAAGGGAUGGUGUCAAAUUCGGCGAAACCUAAGCGCCCGCCCGGGCGUAUGGCAACGCUGAGCCAAGCUUCGGCGCCUGCGCCGAUGGAGGUGUAGAGACUAGACGGCACCCACCUAAGGCAAACGUUAUGGUGAAGGCAUAGUCCAGGGAGGGGCGAAAGUCACACAAACCGG [C82U A111G C150U U176G] | 0.0286
3 | GUGCCUUGCGCCGGGAAACCACGCAAGGGAUGGUGUCAAAUUCGGCGAAACCUAAGCGCCCGCCCGGGCGUAUGGCAACGCUGAGCCAAGCUUCGGCGCCUGCGCCGAUGGAGGUGUAGAGACUAGACGGCACCCACCUAAGGCAAACGCUAUGGUGAAGGCAUAGUCAAGGGAGUGGCGAAAGUCACACAAACCGG [C82U A111G C169A] | 0.0072
4 | GUGCCUUGCGCCGGGAAACCACGCAAGGGAUGGUGUCAAAUUCGGCGAAACCUAAGCGCCCGCCCGGGCGUAUGGCAACGCUGAGCCAAGCUUCGGCGCCUGCGCCGAUGGAGGUGUAGAGACUAGACGGCACCCACCUAAGGCAAACGCUAUGGUGAAGGCAUAGUCAAGGGAGAGGCGAAAGUCACACAAACCGG [C82U A111G C169A U176A] | 0.0124
5 | GUGCCUUGCGCCGGGAAACCACGCAAGGGAUGGUGUCAAAUUCGGCGAAACCUAAGCGCCCGCCCGGGCGUAUGGCAACGCUGAGCCAAGCUUCGGCGCCUGCGCCGAUGGAGGUGUAGAGACUAGACGGCACCCACCUAAGGCAAACGCUAUGGUGAAGGCAUAGUCAAGGGAGCGGCGAAAGUCACACAAACCGG [C82U A111G C169A U176C] | 0.0146
6 | GUGCCUUGCGCCGGGAAACCACGCAAGGGAUGGUGUCAAAUUCGGCGAAACCUAAGCGCCCGCCCGGGCGUAUGGCAACGCUGAGCCAAGCUUCGGCGCCUGCGCCGAUGGAGGUGUAGAGACUAGACGGCACCCACCUAAGGCAAACGCUAUGGUGAAGGCAUAGUCAAGGGAGGGGCGAAAGUCACACAAACCGG [C82U A111G C169A U176G] | 0.00438
7 | GUGCCUUGCGCCGGGAAACCACGCAAGGGAUGGUGUCAAAUUCGGCGAAACCUAAGCGCCCGCCCGGGCGUAUGGCAACGCUGAGCCAAGCUUCGGCGCCUGCGCCGAUGGAGGUGUAGAGACUAGACGGCACCCACCUAAGGCAAACGCUAUGGUGAAGGCAUAGUCGAGGGAGUGGCGAAAGUCACACAAACCGG [C82U A111G C169G] | 0.0092
8 | GUGCCUUGCGCCGGGAAACCACGCAAGGGAUGGUGUCAAAUUCGGCGAAACCUAAGCGCCCGCCCGGGCGUAUGGCAACGCUGAGCCAAGCUUCGGCGCCUGCGCCGAUGGAGGUGUAGAGACUAGACGGCACCCACCUAAGGCAAACGCUAUGGUGAAGGCAUAGUCGAGGGAGAGGCGAAAGUCACACAAACCGG [C82U A111G C169G U176A] | 0.0159
9 | GUGCCUUGCGCCGGGAAACCACGCAAGGGAUGGUGUCAAAUUCGGCGAAACCUAAGCGCCCGCCCGGGCGUAUGGCAACGCUGAGCCAAGCUUCGGCGCCUGCGCCGAUGGAGGUGUAGAGACUAGACGGCACCCACCUAAGGCAAACGCUAUGGUGAAGGCAUAGUCGAGGGAGCGGCGAAAGUCACACAAACCGG [C82U A111G C169G U176C] | 0.0183
10 | GUGCCUUGCGCCGGGAAACCACGCAAGGGAUGGUGUCAAAUUCGGCGAAACCUAAGCGCCCGCCCGGGCGUAUGGCAACGCUGAGCCAAGCUUCGGCGCCUGCGCCGAUGGAGGUGUAGAGACUAGACGGCACCCACCUAAGGCAAACGCUAUGGUGAAGGCAUAGUCGAGGGAGGGGCGAAAGUCACACAAACCGG [C82U A111G C169G U176G] | 0.00463
11 | GUGCCUUGCGCCGGGAAACCACGCAAGGGAUGGUGUCAAAUUCGGCGAAACCUAAGCGCCCGCCCGGGCGUAUGGCAACGCUGAGCCAAGCUUCGGCGCCUGCGCCGAUGGAGGUGUAGAGACUAGACGGCACCCACCUAAGGCAAACGCUAUGGUGAAGGCAUAGUCUAGGGAGUGGCGAAAGUCACACAAACCGG [C82U A111G C169U] | 0.0128
12 | GUGCCUUGCGCCGGGAAACCACGCAAGGGAUGGUGUCAAAUUCGGCGAAACCUAAGCGCCCGCCCGGGCGUAUGGCAACGCUGAGCCAAGCUUCGGCGCCUGCGCCGAUGGAGGUGUAGAGACUAGACGGCACCCACCUAAGGCAAACGCUAUGGUGAAGGCAUAGUCUAGGGAGAGGCGAAAGUCACACAAACCGG [C82U A111G C169U U176A] | 0.0145
13 | GUGCCUUGCGCCGGGAAACCACGCAAGGGAUGGUGUCAAAUUCGGCGAAACCUAAGCGCCCGCCCGGGCGUAUGGCAACGCUGAGCCAAGCUUCGGCGCCUGCGCCGAUGGAGGUGUAGAGACUAGACGGCACCCACCUAAGGCAAACGCUAUGGUGAAGGCAUAGUCUAGGGAGCGGCGAAAGUCACACAAACCGG [C82U A111G C169U U176C] | 0.0132
14 | GUGCCUUGCGCCGGGAAACCACGCAAGGGAUGGUGUCAAAUUCGGCGAAACCUAAGCGCCCGCCCGGGCGUAUGGCAACGCUGAGCCAAGCUUCGGCGCCUGCGCCGAUGGAGGUGUAGAGACUAGACGGCACCCACCUAAGGCAAACGCUAUGGUGAAGGCAUAGUCUAGGGAGGGGCGAAAGUCACACAAACCGG [C82U A111G C169U U176G] | 0.00449
15 | GUGCCUUGCGCCGGGAAACCACGCAAGGGAUGGUGUCAAAUUCGGCGAAACCUAAGCGCCCGCCCGGGCGUAUGGCAACGCUGAGCCAAGCUUCGGCGCCUGCGCCGAUGGAGGUGUAGAGACUAGACGGCACCCACCUAAGGCAAACGCUAUGGUGAAGGCAUAGUCCAGGGAGAGGCGAAAGUCACACAAACCGG [C82U A111G U176A] | 0.193
